Read-outs that look alike come from different tables or passages of the source. Bridges are numbered along the chain shown (N, C = ends). [ ]: non-standard residue; d: D form. dPhe(4-F) = N[C@H](Cc1ccc(F)cc1)C(=O)O; Nle = CCCC[C@H](N)C(=O)O
Tests used:
Assay in all cases: cell-based or functional assay
[1] = target: T1, melanocortin receptor-1 (MC1r), native on the human HBL cell line (human, UniProt Q01726 1-317)
[2] = target: T2, melanocortin receptor-1 (MC1r), native on the mouse B16-F10 cell line (mouse, UniProt Q01727 1-315)
T2 sequence (Q01727 whole entry): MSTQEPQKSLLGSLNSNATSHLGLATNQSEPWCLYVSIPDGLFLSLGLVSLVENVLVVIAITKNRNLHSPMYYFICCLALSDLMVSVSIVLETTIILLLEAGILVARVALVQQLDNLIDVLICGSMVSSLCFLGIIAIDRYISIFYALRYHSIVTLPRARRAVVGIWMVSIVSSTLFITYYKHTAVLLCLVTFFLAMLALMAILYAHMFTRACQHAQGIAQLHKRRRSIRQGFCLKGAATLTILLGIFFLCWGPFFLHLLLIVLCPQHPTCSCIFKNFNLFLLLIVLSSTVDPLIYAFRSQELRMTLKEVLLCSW

[3] = target: T3, melanocortin receptor-3 (MC3r), recombinant on HEK-293 cells
T3 sequence (P41968 whole entry): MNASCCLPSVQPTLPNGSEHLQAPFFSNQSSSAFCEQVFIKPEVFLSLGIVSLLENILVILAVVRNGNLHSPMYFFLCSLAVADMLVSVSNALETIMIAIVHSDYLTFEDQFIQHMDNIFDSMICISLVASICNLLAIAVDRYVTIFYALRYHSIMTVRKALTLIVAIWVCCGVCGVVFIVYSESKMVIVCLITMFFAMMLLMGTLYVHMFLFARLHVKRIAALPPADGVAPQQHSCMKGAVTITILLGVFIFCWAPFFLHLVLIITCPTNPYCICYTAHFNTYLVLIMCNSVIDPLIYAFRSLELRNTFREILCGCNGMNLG

[4] = target: T4, melanocortin receptor-4 (MC4r), recombinant on HEK-293 cells (human, UniProt P32245 1-332)
T4 sequence (P32245 whole entry): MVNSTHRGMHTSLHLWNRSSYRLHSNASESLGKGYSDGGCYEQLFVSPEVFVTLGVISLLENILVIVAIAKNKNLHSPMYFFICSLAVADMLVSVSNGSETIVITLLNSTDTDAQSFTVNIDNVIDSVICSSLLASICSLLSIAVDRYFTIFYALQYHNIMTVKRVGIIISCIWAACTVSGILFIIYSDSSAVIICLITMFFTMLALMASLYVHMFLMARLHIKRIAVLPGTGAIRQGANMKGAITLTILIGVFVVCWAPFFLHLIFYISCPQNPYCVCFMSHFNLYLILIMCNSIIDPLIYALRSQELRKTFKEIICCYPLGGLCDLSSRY

[5] = target: melanocortin receptor-5 (MC5r), assay other than CEREP
melanocortin receptor-5 (MC5r), assay other than CEREP, sequence (P33032 whole entry): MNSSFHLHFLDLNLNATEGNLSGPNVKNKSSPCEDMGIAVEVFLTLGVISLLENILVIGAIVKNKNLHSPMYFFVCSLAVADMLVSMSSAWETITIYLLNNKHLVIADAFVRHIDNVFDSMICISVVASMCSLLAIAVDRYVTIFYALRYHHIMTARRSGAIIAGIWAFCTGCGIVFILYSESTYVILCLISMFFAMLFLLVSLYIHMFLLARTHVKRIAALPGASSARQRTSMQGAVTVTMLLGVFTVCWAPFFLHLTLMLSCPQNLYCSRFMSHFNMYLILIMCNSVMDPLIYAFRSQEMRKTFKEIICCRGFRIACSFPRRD

[6] = target: T5, human melanocortin receptor-5 (MC5), on CHO-K1 cells, CEREP assay 1869 (human, UniProt P33032 1-325)
T5 sequence (P33032 whole entry): as above

[7] = target: T1, melanocortin receptor-1 (MC1r), native …; remark: listed apart in the source
[8] = target: T2, melanocortin receptor-1 (MC1r), native …; remark: listed apart in the source
[9] = target: T3, melanocortin receptor-3 (MC3r), …; remark: listed apart in the source
[10] = target: T4, melanocortin receptor-4 (MC4r), …; remark: listed apart in the source
[11] = target: melanocortin receptor-5 (MC5r), assay other than CEREP; remark: listed apart in the source
[12] = target: T5, human melanocortin receptor-5 (MC5), on …; remark: listed apart in the source

T1 sequence (Q01726 whole entry): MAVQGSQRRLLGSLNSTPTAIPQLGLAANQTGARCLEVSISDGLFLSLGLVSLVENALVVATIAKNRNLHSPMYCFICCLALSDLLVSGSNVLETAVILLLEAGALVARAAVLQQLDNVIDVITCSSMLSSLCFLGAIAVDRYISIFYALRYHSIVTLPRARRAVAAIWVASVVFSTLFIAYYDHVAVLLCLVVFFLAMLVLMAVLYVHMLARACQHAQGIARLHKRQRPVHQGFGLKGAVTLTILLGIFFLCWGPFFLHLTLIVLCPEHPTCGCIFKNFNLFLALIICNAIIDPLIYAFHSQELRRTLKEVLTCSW

EC50 (nM), cAMP accumulation [1]: 0.13 nM
Fold Peptide No. 60 More Potent Than α-MSH (ratio of EC50 values) [1]: 69 fold
EC50 (nM), cAMP accumulation [2]: 0.02 nM
Fold Peptide No. 60 More Potent Than α-MSH (ratio of EC50 values) [2]: 11 fold
EC50 (nM), cAMP accumulation [3]: 0.77 nM
Fold Peptide No. 60 More Potent Than α-MSH (ratio of EC50 values) [3]: 3.9 fold
EC50 (nM), cAMP accumulation [4]: 2 nM
Fold Peptide No. 60 More Potent Than α-MSH (ratio of EC50 values) [4]: 1.5 fold
EC50 [5]: 150 pM
Fold Peptide No. 60 More Potent Than α-MSH (ratio of EC50 values) [5]: 686 fold
EC50 (nM), cAMP production, HTRF, CEREP [6]: 0.39 nM
Fold Peptide No. 60 More Potent Than α-MSH (ratio of EC50 values, CEREP) [6]: 930 fold
EC50 (nM), cAMP accumulation [7]: 0.13 nM
Fold Peptide No. 60 More Potent Than Bremelanotide (ratio of EC50 values) [7]: 0.78 fold
EC50 (nM), cAMP accumulation [8]: 0.02 nM
Fold Peptide No. 60 More Potent Than Bremelanotide (ratio of EC50 values) [8]: 5 fold
EC50 (nM), cAMP accumulation [9]: 0.77 nM
Fold Peptide No. 60 More Potent Than Bremelanotide (ratio of EC50 values) [9]: 4 fold
EC50 (nM), cAMP accumulation [10]: 2 nM
Fold Peptide No. 60 More Potent Than Bremelanotide (ratio of EC50 values) [10]: 0.5 fold
EC50 [11]: 150 pM
Fold Peptide No. 60 More Potent Than Bremelanotide (ratio of EC50 values) [11]: 22500 fold
EC50 (nM), cAMP production, HTRF, CEREP [12]: 0.39 nM
Fold Peptide No. 60 More Potent Than Bremelanotide (ratio of EC50 values, CEREP) [12]: > 25000 fold
B1: Peptide No. 60, Ac-Nle-cyclo(Glu-His-D-Phe(4-F)-Arg-Trp-NH-(CH2)4-NH) (peptide)
peptide: Ac-[Nle]EH[dPhe(4-F)]RW
modifications: bridge 2-C; not fully specified (C-terminus, bridges); printed as Ac-Nle-cyclo(Glu-His-D-Phe(4-F)-Arg-Trp-NH-(CH2)4-NH)

Reference: patent US12692291 (PALATIN TECHNOLOGIES, dated 2026)
